Target: human alpha-thrombin (Homo sapiens, UniProt P00734;P00734 328-363;364-622)
Assay: competition

Binder: GGTTGGTGTGGTTGG (structured_DNA) [15nt anti-thrombin DNA aptamer]
- binding result: binds

Source: article PMC2885824
